{"source": "paper PMC3404956", "about": "“A Quorum Sensing-Disrupting Brominated Thiophenone with a Promising Therapeutic Potential to Treat Luminescent Vibriosis”", "binders": {"B1": {"name": "V. harveyi consensus LuxR binding sequence (dsDNA)", "DNA 1": "TATTGATAAATTTATCAATAA", "DNA 2": "TTATTGATAAATTTATCAATA"}}, "biological_target": "T1, GST-LuxR (Vibrio harveyi, UniProt P21308 1-205)", "T1 sequence": "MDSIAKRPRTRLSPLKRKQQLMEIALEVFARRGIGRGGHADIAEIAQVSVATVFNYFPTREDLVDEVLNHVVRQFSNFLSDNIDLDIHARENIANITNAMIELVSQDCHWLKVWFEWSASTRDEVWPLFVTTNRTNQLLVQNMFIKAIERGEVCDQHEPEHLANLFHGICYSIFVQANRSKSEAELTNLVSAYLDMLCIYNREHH", "assay": "fluorescence anisotropy; no thiophenone; Kd value only in Figure 4B; 30°C; annealing in NaCl-Tris-EDTA buffer; binding buffer, salt and pH not stated (as in ref 37); ex 480 nm, em 535 nm", "settings": "protein: recombinant; chain copies: 2; label: 5'-fluorescein on strand 1; blunt"}
{"binder": "B1", "values": [{"measurement": "binding result", "result": "binds"}]}
